Data published in publication PMC3154423.

Key:
Assay in all cases: ITC
[1] = biological target: Jun bZIP R270A;Fos bZIP R155A (human;human, UniProt P05412;P01100 252-315;137-200, R270A|R155A)
[2] = biological target: Jun bZIP R261A;Fos bZIP R157A (human;human, UniProt P05412;P01100 252-315;137-200, R261A|R157A)
[3] = biological target: Jun-Jun bZIP R272A (human, UniProt P05412 252-315, R272A)
[4] = biological target: Jun bZIP R263A;Fos bZIP R155A (human;human, UniProt P05412;P01100 252-315;137-200, R263A|R155A)
Chain of Jun bZIP R263A;Fos bZIP R155A (P05412 252-315 R263A, chain 1 of 2): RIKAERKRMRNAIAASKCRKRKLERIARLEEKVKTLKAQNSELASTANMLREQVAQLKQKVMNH
Chain of Jun bZIP R263A;Fos bZIP R155A (P01100 137-200 R155A, chain 2 of 2): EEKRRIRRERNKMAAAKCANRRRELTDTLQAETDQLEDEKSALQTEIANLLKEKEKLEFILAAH

[5] = biological target: Jun bZIP R270A;Fos bZIP R157A (human;human, UniProt P05412;P01100 252-315;137-200, R270A|R157A)
Chain of Jun bZIP R270A;Fos bZIP R157A (P05412 252-315 R270A, chain 1 of 2): as the sequence (P05412 252-315 R263A, chain 1 of 2) above, with A12R, R19A counted along it
Chain of Jun bZIP R270A;Fos bZIP R157A (P01100 137-200 R157A, chain 2 of 2): as the sequence (P01100 137-200 R155A, chain 2 of 2) above, with A19R, R21A counted along it

[6] = biological target: Jun bZIP R272A;Fos bZIP R144A (human;human, UniProt P05412;P01100 252-315;137-200, R272A|R144A)
Chain of Jun bZIP R272A;Fos bZIP R144A (P05412 252-315 R272A, chain 1 of 2): as the sequence (P05412 252-315 R263A, chain 1 of 2) above, with A12R, R21A counted along it
Chain of Jun bZIP R272A;Fos bZIP R144A (P01100 137-200 R144A, chain 2 of 2): as the sequence (P01100 137-200 R155A, chain 2 of 2) above, with R8A, A19R counted along it

[7] = biological target: Jun bZIP R272A;Fos bZIP R143A (human;human, UniProt P05412;P01100 252-315;137-200, R272A|R143A)
Chain of Jun bZIP R272A;Fos bZIP R143A (P05412 252-315 R272A, chain 1 of 2): as the sequence (P05412 252-315 R263A, chain 1 of 2) above, with A12R, R21A counted along it
Chain of Jun bZIP R272A;Fos bZIP R143A (P01100 137-200 R143A, chain 2 of 2): as the sequence (P01100 137-200 R155A, chain 2 of 2) above, with R7A, A19R counted along it

[8] = biological target: Jun bZIP K273A;Fos bZIP R143A (human;human, UniProt P05412;P01100 252-315;137-200, K273A|R143A)
Chain of Jun bZIP K273A;Fos bZIP R143A (P05412 252-315 K273A, chain 1 of 2): as the sequence (P05412 252-315 R263A, chain 1 of 2) above, with A12R, K22A counted along it
Chain of Jun bZIP K273A;Fos bZIP R143A (P01100 137-200 R143A, chain 2 of 2): as the sequence (P01100 137-200 R155A, chain 2 of 2) above, with R7A, A19R counted along it

[9] = biological target: Jun bZIP K273A;Fos bZIP R144A (human;human, UniProt P05412;P01100 252-315;137-200, K273A|R144A)
Chain of Jun bZIP K273A;Fos bZIP R144A (P05412 252-315 K273A, chain 1 of 2): as the sequence (P05412 252-315 R263A, chain 1 of 2) above, with A12R, K22A counted along it
Chain of Jun bZIP K273A;Fos bZIP R144A (P01100 137-200 R144A, chain 2 of 2): as the sequence (P01100 137-200 R155A, chain 2 of 2) above, with R8A, A19R counted along it

[10] = biological target: Jun bZIP K258A;Fos bZIP R144A (human;human, UniProt P05412;P01100 252-315;137-200, K258A|R144A)
Chain of Jun bZIP K258A;Fos bZIP R144A (P05412 252-315 K258A, chain 1 of 2): as the sequence (P05412 252-315 R263A, chain 1 of 2) above, with K7A, A12R counted along it
Chain of Jun bZIP K258A;Fos bZIP R144A (P01100 137-200 R144A, chain 2 of 2): as the sequence (P01100 137-200 R155A, chain 2 of 2) above, with R8A, A19R counted along it

[11] = biological target: Jun bZIP R259A;Fos bZIP R146A (human;human, UniProt P05412;P01100 252-315;137-200, R259A|R146A)
Chain of Jun bZIP R259A;Fos bZIP R146A (P05412 252-315 R259A, chain 1 of 2): as the sequence (P05412 252-315 R263A, chain 1 of 2) above, with R8A, A12R counted along it
Chain of Jun bZIP R259A;Fos bZIP R146A (P01100 137-200 R146A, chain 2 of 2): as the sequence (P01100 137-200 R155A, chain 2 of 2) above, with R10A, A19R counted along it

[12] = biological target: Jun bZIP R259A;Fos bZIP R155A (human;human, UniProt P05412;P01100 252-315;137-200, R259A|R155A)
Chain of Jun bZIP R259A;Fos bZIP R155A (P05412 252-315 R259A, chain 1 of 2): as the sequence (P05412 252-315 R263A, chain 1 of 2) above, with R8A, A12R counted along it
Chain of Jun bZIP R259A;Fos bZIP R155A (P01100 137-200 R155A, chain 2 of 2): as the sequence (P01100 137-200 R155A, chain 2 of 2) above

[13] = biological target: Jun bZIP R263A;Fos bZIP K148A (human;human, UniProt P05412;P01100 252-315;137-200, R263A|K148A)
Chain of Jun bZIP R263A;Fos bZIP K148A (P05412 252-315 R263A, chain 1 of 2): as the sequence (P05412 252-315 R263A, chain 1 of 2) above
Chain of Jun bZIP R263A;Fos bZIP K148A (P01100 137-200 K148A, chain 2 of 2): as the sequence (P01100 137-200 R155A, chain 2 of 2) above, with K12A, A19R counted along it

[14] = biological target: Jun bZIP K273A;Fos bZIP R157A (human;human, UniProt P05412;P01100 252-315;137-200, K273A|R157A)
Chain of Jun bZIP K273A;Fos bZIP R157A (P05412 252-315 K273A, chain 1 of 2): as the sequence (P05412 252-315 R263A, chain 1 of 2) above, with A12R, K22A counted along it
Chain of Jun bZIP K273A;Fos bZIP R157A (P01100 137-200 R157A, chain 2 of 2): as the sequence (P01100 137-200 R155A, chain 2 of 2) above, with A19R, R21A counted along it

[15] = biological target: Jun bZIP K268A;Fos bZIP R143A (human;human, UniProt P05412;P01100 252-315;137-200, K268A|R143A)
Chain of Jun bZIP K268A;Fos bZIP R143A (P05412 252-315 K268A, chain 1 of 2): as the sequence (P05412 252-315 R263A, chain 1 of 2) above, with A12R, K17A counted along it
Chain of Jun bZIP K268A;Fos bZIP R143A (P01100 137-200 R143A, chain 2 of 2): as the sequence (P01100 137-200 R155A, chain 2 of 2) above, with R7A, A19R counted along it

[16] = biological target: Jun bZIP K258A;Fos bZIP R157A (human;human, UniProt P05412;P01100 252-315;137-200, K258A|R157A)
Chain of Jun bZIP K258A;Fos bZIP R157A (P05412 252-315 K258A, chain 1 of 2): as the sequence (P05412 252-315 R263A, chain 1 of 2) above, with K7A, A12R counted along it
Chain of Jun bZIP K258A;Fos bZIP R157A (P01100 137-200 R157A, chain 2 of 2): as the sequence (P01100 137-200 R155A, chain 2 of 2) above, with A19R, R21A counted along it

[17] = biological target: Jun-Jun bZIP R261A (human, UniProt P05412 252-315, R261A)
Chain of Jun-Jun bZIP R261A (P05412 252-315 R261A): as the sequence (P05412 252-315 R263A, chain 1 of 2) above, with R10A, A12R counted along it

Chain of Jun-Jun bZIP R272A (P05412 252-315 R272A): as the sequence (P05412 252-315 R263A, chain 1 of 2) above, with A12R, R21A counted along it
Chain of Jun bZIP R261A;Fos bZIP R157A (P05412 252-315 R261A, chain 1 of 2): as the sequence (P05412 252-315 R263A, chain 1 of 2) above, with R10A, A12R counted along it
Chain of Jun bZIP R261A;Fos bZIP R157A (P01100 137-200 R157A, chain 2 of 2): as the sequence (P01100 137-200 R155A, chain 2 of 2) above, with A19R, R21A counted along it
Chain of Jun bZIP R270A;Fos bZIP R155A (P05412 252-315 R270A, chain 1 of 2): as the sequence (P05412 252-315 R263A, chain 1 of 2) above, with A12R, R19A counted along it
Chain of Jun bZIP R270A;Fos bZIP R155A (P01100 137-200 R155A, chain 2 of 2): as the sequence (P01100 137-200 R155A, chain 2 of 2) above

B1: TRE duplex 15-mer (dsDNA)
DNA 1: CGCGTGACTCACCCC
DNA 2: GGGGTGAGTCACGCG
[1]
  Kd: 28900 ± 470 nM
[2]
  Kd: 890 ± 30 nM
[3]
  Kd: 490 ± 40 nM
[4]
  Kd: 3880 ± 90 nM
[5]
  Kd: 3560 ± 130 nM
[6]
  Kd: 3720 ± 360 nM
[7]
  Kd: 910 ± 70 nM
[8]
  Kd: 1220 ± 150 nM
[9]
  Kd: 3590 ± 300 nM
[10]
  Kd: 2780 ± 50 nM
[11]
  Kd: 2260 ± 140 nM
[12]
  Kd: 5750 ± 90 nM
[13]
  Kd: 1130 ± 10 nM
[14]
  Kd: 1300 ± 80 nM
[15]
  Kd: 720 ± 10 nM
[16]
  Kd: 1500 ± 80 nM
[17]
  Kd: 380 ± 20 nM
